The results in this text go back to the supplement of paper PMC9170038.

The data set concerns MS2 coat protein. The experiment in a line: apparent KD of MS2 coat protein; designed switch direction (-1 OFF switch, 1 ON switch): -1; higher = weaker reporter binding. In a few lines: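 Designed RNA switches sharing common flanks were transcribed on Illumina chips by stalled E. coli RNA polymerase. They were titrated with SNAP-549-labelled MS2 coat protein, from 0.7 or 1.5 nM doubling to 3 µM, in Tris-HCl pH 7.5 buffer with KCl, MgCl2, BSA, DTT, tRNA and Tween-20. Titrations ran without input, with 200 uM small-molecule ligand, or with an oligonucleotide input. The apparent KD of each design is the median over its clusters, after curve-fitting of normalised cluster fluorescence.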

The mark [1] stands for this setting: input ligand: microRNA oligo, concentration not stated.
Where [2] appears, read: Eterna round: R95, input ligand: FMN 200 uM.
The mark [3] stands for this setting: Eterna round: R95, input ligand: microRNA oligo, concentration not stated.
Where [4] appears, read: Eterna round: R95, input ligand: none.

Take “CUGCUCCGUGUAGGAUAUGCGCGCAACCAACGCGCAGAAGGACAUGAGGAUCACCCAUGUAUGUUAUUAUCACGUGAAGCGCAA [Design 31] (Eterna round: R96, puzzle: Exclusion NG 1)”: the “apparent KD of MS2 coat protein” value reads like this: (input ligand: FMN 200 uM) 16 nM; under setting [1], 12.3 nM; (input ligand: none) 13.2 nM.

Regarding “CUGGACAGAGGAUAUUGUGCUGCUGACAUGAGGAUCACCCAUGUAUGUUAACUCGGCCGUCGAGAAGGCUGACAGG [BotMod 17 - Jieux - Exclusion 5] (Eterna round: R97, puzzle: Exclusion 5)”, the “apparent KD of MS2 coat protein” value runs as follows: (input ligand: FMN 200 uM) 14.3 nM; (input ligand: none) 19.2 nM.

Consider “CUGGGUCGUGUUAGGAUAUGCUCUAGAAAGUUAGGGUAGAAGGAACAUGAGGAUCACCCAUGUGACUUCACUAG [BmEX4 B.27] (Eterna round: R97, puzzle: Brourd's mod of Exclusion 4)”, for which the “apparent KD of MS2 coat protein” value turned out to be 23.6 nM (input ligand: FMN 200 uM) and 15.4 nM (input ligand: none).

Take “CUGGUCCGAGGAUAUAUUAAGUGAUACAUGAGGAUCACCCAUGUAAUUUGAUGGAAAUAAAUAGAAGGCGGACUAG [Mat - Exclusion 5 - JL mod - D44] (puzzle: Exclusion 5)”: the “apparent KD of MS2 coat protein” value by setting is: under setting [2], 34.2 nM; under setting [3], 45.9 nM; under setting [4], 53.4 nM.

Regarding “CUGGUCCGAGGAUAUAUUAUGUGAUACAUGAGGAUCACCCAUGUUAUAUGAUGGAUGUUAGUAGAAGGCGGACUAG [JL-ex5-3.21] (puzzle: Exclusion 5)”, the “apparent KD of MS2 coat protein” value was 102 nM under setting [2], 57.3 nM under setting [3] and 59.9 nM under setting [4].

Turning to “CUGGUGUGAGGAUAUCAGGGCGCGCCCAAGGGCACGCCAAAUGAGAAGGCACAUGAGGAUCACCCAUGUGGGAC [Erzala] (puzzle: Exclusion 4)”, the “apparent KD of MS2 coat protein” value amounted to 45.6 nM under setting [2], 31.4 nM under setting [3] and 35.3 nM under setting [4].

For the sequence “CUGUACUAAGGAUAUACAUGAGGAUCACCCAUGUCGAUGGUAGGCUGACCGUGACUCCGUAGAAGGUAGAUUCC [Eternabot (L1) Solution 77] (Eterna round: R97, puzzle: Exclusion 3)”, the “apparent KD of MS2 coat protein” value is, setting by setting: (input ligand: FMN 200 uM) 100 nM; (input ligand: none) 81.5 nM.

On to “CUGUACUGAGGAUAUACAUGAGGAUCACCCAUGUUCUUCAGCUAGGAAACUAGCAAAGGUAGAAGGCAGUACAG [Mat - Exclusion 3 - Eli Mod - D69] (Eterna round: R97, puzzle: Exclusion 3)”, for which the “apparent KD of MS2 coat protein” value (input ligand: FMN 200 uM) came out at 784 nM and the “apparent KD of MS2 coat protein” value (input ligand: none) is 34.3 nM.

Turning to “CUGUGCACGCUGCGGUCCUACAUGAGGAUCACCCAUGUGGUCUGGUGGCGUGGGUCACCGGACUUGGCUCGUCUUGA [salish99_S_TOV1_R5_065] (Eterna round: R97, puzzle: Sensor, turn-off variant 1)”, the “apparent KD of MS2 coat protein” value by setting is: (input ligand: FMN 200 uM) 44.8 nM; (input ligand: none) 49.3 nM.

Consider “CUGUUCCAUGUAGGAUAUGCAUAUUCUCAUUAUGCAGAAGGACAUGAGGAUCACCCAUGUAUGUUAUUAUUAUAUGUUACAUGU [Design 3] (Eterna round: R96, puzzle: Exclusion NG 1)”, for which the “apparent KD of MS2 coat protein” value (input ligand: FMN 200 uM) came to 633 nM, the “apparent KD of MS2 coat protein” value under setting [1] is 47.7 nM and the “apparent KD of MS2 coat protein” value (input ligand: none) is 64.9 nM.

“CUUAGCCUAAAAUCACGCAAGCUCUUUGCUUGUCUUAAGACAUGAGGAUCACCCAUGUCCGGGCUGAACUUAUGGAA [Qugegele] (puzzle: Sensor v3, turn-off variant 2)”: the “apparent KD of MS2 coat protein” value runs as follows: under setting [2], 19.9 nM; under setting [3], 24.9 nM; under setting [4], 21 nM.

With “CUUAGCCUAAAAUCACGCAAGCUUUCUGCUUGUCUUAAGACAUGAGGAUCACCCAUGUCCGGGCUGAACUUAUGGAA [Inve] (puzzle: Sensor v3, turn-off variant 2)”, the “apparent KD of MS2 coat protein” value reads like this: under setting [2], 18.8 nM; under setting [3], 22.5 nM.

On to “CUUAGCCUAAAAUCACGCAAGCUUUUCGCUUGUCUUAAGACAUGAGGAUCACCCAUGUCCGGGCUGAACUUAUGGAA [Esenma] (puzzle: Sensor v3, turn-off variant 2)”, for which the “apparent KD of MS2 coat protein” value is, setting by setting: under setting [2], 18.3 nM; under setting [3], 19.2 nM; under setting [4], 18.5 nM.

In the case of “CUUAUGUAAGGAUAUGCCUGGCCGUGAGGCCAAAUUGAAUAGCAGAAGGUACAUGAGGAUCACCCAUGUACGGG [jl-ex4-4.63 ViennaUCT mod] (Eterna round: R97, puzzle: Exclusion 4)”, the “apparent KD of MS2 coat protein” value is, setting by setting: (input ligand: FMN 200 uM) 325 nM; (input ligand: none) 364 nM.

For the sequence “CUUAUGUCAGGAUAUUAGUAGUAAAUGAAUAAAAUUAUUACUGAGAAGGGACAUGAGGAUCACCCAUGUUCCUC [Mat - Exclusion 4 - Eli Mod - D4] (Eterna round: R97, puzzle: Exclusion 4)”, the “apparent KD of MS2 coat protein” value (input ligand: FMN 200 uM) came to 149 nM and the “apparent KD of MS2 coat protein” value (input ligand: none) was 19.6 nM.

In the case of “CUUAUGUGAGGAUAUGCCUGGCCGUGAGGCCAAAUUGAAUUGCAGAAGGCACAUGAGGAUCACCCAUGUGCGGG [jl-ex4-4.66 ViennaUCT mod] (Eterna round: R97, puzzle: Exclusion 4)”, the “apparent KD of MS2 coat protein” value reads like this: (input ligand: FMN 200 uM) 201 nM; (input ligand: none) 50.2 nM.

Take “CUUCGACAUGAGGAUCACCCAUGUCAGGAUAUUGUGUAUCGGGUUUUUUACGGAAAGGCGAGAAGGGAUGUGUG [LRO-Excl1-09] (puzzle: Exclusion 1)”: the “apparent KD of MS2 coat protein” value under setting [3] was determined as 22 nM.

Take “CUUCGUAAUGUCAGGAUAUUUUCGAGGGCAACUCAAAAGAAGGGACAUGAGGAUCACCCAUGUGGCAACGUCAU [Eternabot (L2) Solution 83] (Eterna round: R97, puzzle: Brourd's mod of Exclusion 4)”: the “apparent KD of MS2 coat protein” value reads like this: (input ligand: FMN 200 uM) 177 nM; (input ligand: none) 51.9 nM.

On to “CUUCUGUGAGGAUAUGUUAGUUCCCAGCAAAUCGCUGGGAGACAGAAGGCACAUGAGGAUCACCCAUGUGGGCG [Vexeanra] (Eterna round: R96, puzzle: Exclusion 4)”, for which the “apparent KD of MS2 coat protein” value runs as follows: (input ligand: FMN 200 uM) 612 nM; under setting [1], 49.8 nM; (input ligand: none) 64.7 nM.

For “CUUGAAUAAGUGAGGAUAUACUGUUAGUAAUGAUUGUAGAAGGUACAUGAGGAUCACCCAUGUUUAUUCAUAAU [JR_BME4_Sub041] (puzzle: Brourd's mod of Exclusion 4)”, the “apparent KD of MS2 coat protein” value under setting [3] amounted to 17.5 nM.

For “CUUGUGUCAGGAUAUGCUAAGUAUUCGUUUUACGCGUCUAGGCAGAAGGGACAUGAGGAUCACCCAUGUAACGC [EX4 B.30] (Eterna round: R97, puzzle: Exclusion 4)”, the “apparent KD of MS2 coat protein” value runs as follows: (input ligand: FMN 200 uM) 172 nM; (input ligand: none) 133 nM.

As for “CUUGUUUAUGUAGGAUAUGCCUGGCGUGCCUUUGCAGAAGGACAUGAGGAUCACCCAUGUAGUAUGAGGCUUACCCUUGUCGCC [salish99_ExNG1_r04_120] (Eterna round: R96, puzzle: Exclusion NG 1)”, the “apparent KD of MS2 coat protein” value under setting [1] was 19.9 nM.

For the sequence “CUUUACAAGCUAAGAUCCUACAUGAGGAUCACCCAUGUGGUCCGGUGACGUGAGUCACCGGACUUAGCUCGUCUUGC [salish99_S_TOV1_R5_094] (Eterna round: R97, puzzle: Sensor, turn-off variant 1)”, the “apparent KD of MS2 coat protein” value came to 31.2 nM (input ligand: FMN 200 uM) and 36.8 nM (input ligand: none).

Consider “CUUUACAAGCUAAGAUCCUACAUGAGGAUCACCCAUGUGGUCCGGUGACGUGAGUCACCGGACUUAGCUCGUCUUGG [salish99_S_TOV1_R5_095] (Eterna round: R97, puzzle: Sensor, turn-off variant 1)”, for which the “apparent KD of MS2 coat protein” value is, setting by setting: (input ligand: FMN 200 uM) 30.1 nM; (input ligand: none) 32.2 nM.

“CUUUCGUGAGGAUAUCAGUAGUAAAAAAAUAAAAUUACUACUGAGAAGGCACAUGAGGAUCACCCAUGUUCCUC [salish99_ex3_r3_097] (puzzle: Exclusion 4)”: the “apparent KD of MS2 coat protein” value under setting [3] stood at 25.7 nM.

As to “CUUUUGUGAGGAUAUCAGUAGUAAAAAAAUAAAAUUUCUACUGAGAAGGCACAUGAGGAUCACCCAUGUUCCUC [salish99_ex4_r3_026] (puzzle: Exclusion 4)”, under setting [3], the “apparent KD of MS2 coat protein” value amounted to 34.5 nM.

For “CUUUUGUGAGGAUAUCAGUAGUAAAUAAAUAAAUUAACUACUGAGAAGGCACAUGAGGAUCACCCAUGUUCCUU [Mat - Exclusion 4 - Mod of Salish - D65] (puzzle: Exclusion 4)”, the “apparent KD of MS2 coat protein” value under setting [3] was 13.7 nM.

For the sequence “CUUUUGUGAGGAUAUCAGUAGUAUAAAAUUAAAAUUACUACUGAGAAGGCACAUGAGGAUCACCCAUGUUCCUC [Mat - Exclusion 4 - Mod of Salish - D75] (puzzle: Exclusion 4)”, the “apparent KD of MS2 coat protein” value under setting [3] stood at 36 nM.

Turning to “CUUUUGUGAGGAUAUUAGUAGUAAUUAAAUAAAAUUACUACUGAGAAGGCACAUGAGGAUCACCCAUGUUCCUC [salish99_ex4_r3_053] (puzzle: Exclusion 4)”, the “apparent KD of MS2 coat protein” value under setting [3] worked out at 35.9 nM.

In the case of “GAAAACGCAGAGGAUAUUUCAGAUCAAAGCUGCAAAGAAGGCUGCACAUGAGGAUCACCCAUGUGGUCUUCAAU [Mat - Exclusion 6 - JL Mod - D8] (Eterna round: R97, puzzle: Exclusion 6)”, the “apparent KD of MS2 coat protein” value (input ligand: FMN 200 uM) was 315 nM and the “apparent KD of MS2 coat protein” value (input ligand: none) turned out to be 25.8 nM.

“GAAAAGCUAGGAUAUACGAAAAAAAAGGGUAGAAAAAAAACACAUGAGGAUCACCCAUGUAGAAGGAGCAAAAG [salish99_ex2_r3_093] (puzzle: Exclusion 2)”: the “apparent KD of MS2 coat protein” value by setting is: under setting [2], 102 nM; under setting [3], 51 nM; under setting [4], 48.2 nM.

As to “GAAAAGGUAGGAUAUACGAAAAAAAAGGGUAGAAAAAAAACACAUGAGGAUCACCCAUGUAGAAGGACCAAAAA [salish99_ex2_r3_050] (puzzle: Exclusion 2)”, the “apparent KD of MS2 coat protein” value reads like this: under setting [2], 98.9 nM; under setting [3], 45 nM; under setting [4], 34.2 nM.
